Consider one molecule from paper PMC8765073 (mAbs, 2022).

The target of assay [1] is RBD of SARS-CoV-1 (Tor 2) (SARS-CoV-1, Tor2, UniProt P59594). Put plainly: BLI. (In general: In BLI a coated tip is dipped into the sample, and binding shifts an interference pattern.)
In assay [2] the target is RBD of pangolin CoV (PCoV-GD1) (Pangolin coronavirus GD/1/2019 …). Put plainly: BLI.

A value given as a limit tells only on which side of the number the result lay.

B1: D27LEY (antibody, V domains shown)
VH: QVQLQQSGAEVKKPGSSVKVSCKASGGTFGNWSISWVRQAPGQGLEWMGGIAPGRGEATYAQKFQGRVTITTDESTSTAYMELSSLRSEDTAVYYCARETWYTSGGMDVWGQGTTVTVSS
VL: SYELTQPPSVSVAPGKTARITCGGNNIGRKSVHWYQQKPGQAPVLVVYDDSDRPSGIPERFSGSNSGNTATLTISRVEAGDEADYYCQVYDLWSSDYVFGTGTKVEIK
A word on the Kd: it is the constant that tells how readily two partners part at equilibrium. Low readings indicate higher affinity, high ones lower affinity. For B1, the values for the dissociation constant Kd in assay [1] and in assay [2] were below 1 pM and 0.66 nM, respectively.
